Bounds are passed on as bounds.

The values below come from patent publication US8178319B2, “Peptides and uses thereof” (priority 2008, dated 2012).

Assay [1] relates to wheat-germ agglutinin isolated B-domain (WGA-B). To be noted: monovalent form of wheat-germ agglutinin (B-domain); Espinosa et al, 2000; cited from earlier work.
The test system of assay [2] is human type 0 erythrocytes. Briefly: Hemagglutination activity with human type 0 erythrocytes. It is filed as cell-based. The conditions noted are these: 2% human type 0 erythrocytes in PBS, room temperature, 1 h; for minimum lectin concentration that gave hemagglutination (molar): approximate conversion of μg/ml. The procedure:
The hemagglutination activity of full length rAAL and Mono-F2 (SEQ ID NO: 4) was determined by serial dilutions of the lectins in PBS and mixing with an equal volume (50μL) of 2% human type 0erythrocytes suspended in PBS. After incubation at room temperature for 1h the minimum lectin concentration that gave a positive reaction was determined.

A short description of assay [3]: Affinity chromatography on fucose-agarose column. It is filed as binding. The procedure:
Purified Mono-F2 (SEQ ID NO: 4) was analyzed on a 1 mL fucose-agarose column (Sigma-Aldrich, Stockholm, Sweden). The column was equilibrated with 20mL PBS. Mono-F2 (SEQ ID NO: 4) was added and the column was incubated for 20 minutes at 4° C. with gentle rocking. After incubation the column was washed with PBS until the absorbance at 280 nm had reached zero. Elution was performed with 4 mL of 0.15 M L-fucose in PBS, 4 mL of 1 M L-fucose in PBS, and lastly with glycine buffer pH 2.5. Fractions (1 mL) were collected with monitoring of absorbance at 280 nm. The fractions were further analysed by SDS-PAGE.

Assay [4] in a line: Oligosaccharide affinity chromatography on silica column with immobilized Mono-F2. It is filed as binding, human. As to the method: FIG. 5 - chromatograms of some fucosylated human milk oligosaccharides (LNnF I, LNF II and LNF III) and a non-fucosylated control (LNT) on a silica column with immobilized Mono-F2 (SEQ ID NO: 4).
Mono-F2 (SEQ ID NO: 4) was immobilized on silica particles (5μM, 300 Å) and packed in an affinity column (50×0.32 mm) and chromatography of a number of oligosaccharides were examined. […] Elutions of oligosaccharides were detected by UV absorbance at 210 nm.

A short description of assay [5]: ELISA binding of biotinylated lectin to oligosaccharide glycoconjugates. To be noted: for ELISA binding to non-fucosylated oligosaccharide LNT: LNT-BSA coated wells, absorbance 405 nm; for ELISA binding specificity towards fucosylated oligosaccharides: LNnF I, LNF II, LNF III, B-tri, SLex, SLea conjugates, absorbance 405 nm (FIG. 7). The procedure: Purified Mono-F2 (SEQ ID NO: 4) and full length rAAL were biotinylated using IMMUNOPROBE™ Biotinylation Kit (Sigma-Aldrich, Stockholm, Sweden) according to the manufacturer's instruction. The biotin/protein ratio was determined to 1.1 biotin moieties per protein molecule for both Mono-F2 (SEQ ID NO: 4) and rAAL. Microtiter plates (Nunc MaxiSorp™ eBioscience, San Diego, CA) were coated with 0.2 μg of LNnF I-BSA, LNF II-BSA, LNF III-HSA, LNT-BSA; 0.1 μg of B-tri-HSA, SLex-HSA and SLea-HSA in 100 μL coating buffer (15 mM Na2CO3, 35 mM NaHCO3, 0.02% NaN3, pH 9.6). Then 100 μL of biotinylated Mono-F2 (SEQ ID NO: 4) or full length rAAL was added to the wells. After addition of ExtrAvidin (E-2632 Sigma-Aldrich, Stockholm, Sweden) and phosphatase substrate (Sigma 104®, Sigma-Aldrich, Stockholm, Sweden) the amount of Mono-F2 (SEQ ID NO: 4) or full length AAL binding to each well were measured at 405 nm using a VERSAmax microplate reader (Molecular Devices Corporation, Sunnyvale, CA).
To analyze whether the His-tag on Mono-F2 (SEQ ID NO: 4) affected the fucose binding the ELISA analysis was also performed using Mono-F2 (SEQ ID NO: 4) pre-treated with thrombin protease to remove the His-tag. Biotin labelled Mono-F2 (SEQ ID NO: 4) (50μg) in PBS was incubated with 2 units of thrombin protease (Amersham Biosciences, Uppsala, Sweden) for 2 hours at room temperature.
In general terms: ELISA stands for enzyme-linked immunosorbent assay.

With `CC(=O)N[C@H]1[C@H](O[C@H]2[C@H](O)[C@@H](NC(C)=O)C(O)O[C@@H]2CO)O[C@H](CO)[C@@H](O[C@@H]2O[C@H](CO)[C@@H](O)[C@H](O)[C@H]2NC(C)=O)[C@@H]1O` (stereo partly drawn) [chitotriose, N,N′, N″-triacetylchitotriose], the binding affinity result in assay [1] is reported as “millimolar range”.

B1: Mono-F2: Recombinant His-tagged monovalent fucose-binding fragment of Aleuria aurantia lectin, site 2 (AAL aa 51-161) (protein, listed as Aleuria aurantia)
chain: SQNVIGEAKLFSPLAAVTWKSAQGIQIRVYCVNKDNILSEFVYDGSKWITGQLGSVGVKVGSNSKLAALQWGGSESAPPNIRVYYQKSNGSGSSIHEYVWSGKWTAGASFG
modifications: His tag
As to B1, in assay [2], the “minimum lectin concentration that gave hemagglutination” value was greater than 200 µg/mL and the “minimum lectin concentration that gave hemagglutination (molar)” value is greater than 14 µM. The “elution from fucose-agarose column with 0.15 M L-fucose” value in assay [3] (4 mL of 0.15 M L-fucose in PBS) is listed as “could not be eluted”. Besides, the “elution from fucose-agarose column with 1 M L-fucose” value in assay [3] (4 mL of 1 M L-fucose in PBS) is “Very little was eluted”. The “binding to immobilized fucose (conclusion; low-pH buffer needed for full elution)” value in assay [3] (glycine buffer pH 2.5 needed for full elution) was “high affinity binding to fucose”. The “retention of non-fucosylated LNT on immobilized Mono-F2 column” value in assay [4] (LNT (non fucosylated) control) is given as “not bound to the column”. Also, the “retention of fucosylated oligosaccharides LNF I, LNF II and LNF III on immobilized Mono-F2 column” value in assay [4] (increasing retention times LNF I, LNF II, LNF III, UV 210 nm) was “retarded on the column”. Moreover, in assay [5], the “ELISA binding to non-fucosylated oligosaccharide LNT” value is reported as “only low background binding” and the “ELISA binding specificity towards fucosylated oligosaccharides” value is recorded as “binding only non-sialylated oligosaccharide structures with α1-2 or α1-4 linked fucose”.

B2: Mono-F2-T: Mono-F2 pre-treated with thrombin protease to remove the His-tag (protein, listed as Aleuria aurantia)
chain: SQNVIGEAKLFSPLAAVTWKSAQGIQIRVYCVNKDNILSEFVYDGSKWITGQLGSVGVKVGSNSKLAALQWGGSESAPPNIRVYYQKSNGSGSSIHEYVWSGKWTAGASFG
modifications: His-tag removed by thrombin
As to B2, the “ELISA binding compared with non-treated Mono-F2” value in assay [5] (LNnF I-, LNF II- and LNF III-BSA conjugates, His-tag removed with thrombin (FIG. 8)) is recorded as “identical binding”.

B3: rAAL: Recombinant full length His-tagged Aleuria aurantia lectin (protein, UniProt P18891 2-313, looked up)
Fucose-specific lectin: PTEFLYTSKIAAISWAATGGRQQRVYFQDLNGKIREAQRGGDNPWTGGSSQNVIGEAKLFSPLAAVTWKSAQGIQIRVYCVNKDNILSEFVYDGSKWITGQLGSVGVKVGSNSKLAALQWGGSESAPPNIRVYYQKSNGSGSSIHEYVWSGKWTAGASFGSTVPGTGIGATAIGPGRLRIYYQATDNKIREHCWDSNSWYVGGFSASASAGVSIAAISWGSTPNIRVYWQKGREELYEAAYGGSWNTPGQIKDASRPTPSLPDTFIAANSSGNIDISVFFQASGVSLQQWQWISGKGWSIGAVVPTGTPAGW
modifications: His-tag
notes: Recombinant full length His-tagged Aleuria aurantia lectin
For B3, in assay [2], the “minimum lectin concentration that gave hemagglutination” value came to 2.5 µg/mL and the “minimum lectin concentration that gave hemagglutination (molar)” value is roughly 0.071 µM. Moreover, in assay [5], the “ELISA binding to non-fucosylated oligosaccharide LNT” value is recorded as “only low background binding” and the “ELISA binding specificity towards fucosylated oligosaccharides” value is on record as “bound to all fucosylated oligosaccharides”.
